Reference: patent publication US20220023399A1, “BLOOD COMPONENT POTENTIATION OF LYTIC PROTEIN ANTI-BACTERIAL ACTIVITY AND METHODS AND USES THEREOF” (priority 2017, published 2022)
Several values for one entry are separate records, joined by “and”; a condition that tells them apart may be missing. Equal entries are not always repeated.

Assays:
S. aureus strain MW2 [1] = assay: Transmission electron microscopy of lytic activity; type: cell-based
Protocol: FIG. 13 depicts TEM analysis of S. aureus strain MW2 treated with PlySs2 (CF-301) in either human serum (HuS) or MHB for 15 minutes.
Staphylococci were treated with a range of PlySs2 (CF-301) concentrations for […] in either human serum or MHB before analysis by transmission electron microscopy (TEM). […] In addition to the more rapid bacteriolysis in serum, the lytic event was visually different in comparison to the event in MHB. In human serum, all bacteria are encased in a proteinaceous sheath presumably consisting of host proteins including HSA. […] In contrast, the lytic event in MHB appears as the classic cytoplasmic membrane bubbling and extrusion just prior to lysis.
Electron Microscopy. Mid-log phase strain MW2 growing in either CAMHB or human serum (Sigma-Aldrich) was treated with the indicated concentrations of PlySs2 (CF-301) or buffer alone (control) at 37° C. for 15 minutes. The cells were then washed with 1× phosphate buffer (PB) and resuspended in a solution of 4% paraformaldehyde and 2% glutaraldehyde in 0.1 M cacodylate buffer (pH 7.4). The samples were post-fixed in 1% osmium tetroxide, block stained with uranyl acetate, and processed according to standard procedures by The Rockefeller University Electron Microscopy Service. Samples were visualized using a Tecnai™ Spirit BT Transmission Electron Microscope (FEI). […]

S. aureus strain MW2 [2] = assay: Lytic assay (loss of optical density) and specific activity
MRSA strain MW2 = assay: Rat infective endocarditis model; type: in vivo, Sprague-Dawley rats

B1: PlySs2 (CF-301): antistaphylococcal lysin from a Streptococcus suis prophage; N-terminal CHAP domain, C-terminal SH3-type binding domain; SEQ ID NO:3 (protein, listed as Streptococcus suis)
chain: MTTVNEALNNVRAQVGSGVSVGNGECYALASWYERMISPDATVGLGAGVGWVSGAIGDTISAKNIGSSYNWQANGWTVSTSGPFKAGQIVTLGATPGNPYGHVVIVEAVDGDRLTILEQNYGGKRYPVRNYYSAASYRQQVVHYITPPGTVAQSAPNLAGSRSYRETGTMTVTVDALNVRRAPNTSGEIVAVYKRGESFDYDTVIIDVNGYVWVSYIGGSGKRNYVATGATKDGKRFGNAWGTFK
S. aureus strain MW2 [1]; MHB
  concentration at which bacteriolytic activity was observed by TEM (only the highest tested): 5 µg/mL
S. aureus strain MW2 [1]; human serum, all concentrations over a 100-fold range
  bacteriolysis observed by TEM: widespread evidence of lysis
S. aureus strain MW2 [2]; supplement HuLYZ, 10 μg/mL
  Fold increase in specific activity: 9.8
S. aureus strain MW2 [2]; supplement rHSA, 4%
  Fold increase in specific activity: 17.8
S. aureus strain MW2 [2]; supplements rHSA, HuLYZ
  Fold increase in specific activity: 25
MRSA strain MW2; S. aureus infectious endocarditis models
  fold lower doses giving comparable efficacy in the rabbit vs the rat model: 111 fold
MRSA strain MW2; rat IE model, 10 mg/kg in addition to DAP, 3 log10 drop relative to DAP alone
  estimate AUC/MIC ratio required to achieve maximal efficacy: ≥ 0.87
MRSA strain MW2; rat, total dose 10 mg/kg PlySs2 (CF-301) in addition to HTD equivalent of DAP, relative to DAP alone
  drop in CFU/g in heart valve vegetation: ~3 log 10
MRSA strain MW2; rats 10 mg/kg vs rabbits 0.18 mg/kg
  fold higher AUC exposure required for similar bactericidal effect in rats compared to rabbits: > 20 fold
MRSA strain MW2; rats 10 mg/kg vs rabbits 0.18 mg/kg, in addition to DAP
  fold higher dose required for similar bactericidal effect in rats compared to rabbits: ~50 fold and > 50 fold
